Experimental findings from publication PMC6254361, “The properties of Msh2–Msh6 ATP binding mutants suggest a signal amplification mechanism in DNA mismatch repair” (The Journal of Biological Chemistry, 2018) are described below.

Some results are limits rather than exact numbers.

The target of data set [1] is S. cerevisiae Mlh1–Pms1 [S. cerevisiae]. Put plainly: SPR. The note with it: GT mispair-containing double end-blocked DNA surface; buffer with ATP and LacI; read off a plot.
In data set [2] the test system is Msh2;Msh6 (Saccharomyces cerevisiae;Saccharomyces cerevisiae). Put plainly: SPR. The note with it: SPR on streptavidin surface; buffer, salt, pH and temperature not given in the material; with or without 0.1-2.5 mM ATP; LacI end block, released by 1 mM IPTG.
Data set [3] concerns the target Walker A Lys mutant Msh2–Msh6 complexes (S. cerevisiae). Put plainly: SPR; Biacore T100; 236-bp GT mispair DNA held by biotin-streptavidin, other end blocked by lacO-LacI; 20 nM Msh2–Msh6, 250 μM ATP, 30 nM LacI for 100 s, then the same plus 40 nM Mlh1–Pms1 for 300 s; recruitment read as the increase in RU over steady-state Msh2–Msh6; 25 mM Tris pH 8, 4 mM MgCl2, 110 mM NaCl, 0.01% Igepal, 2 mM DTT, 2% glycerol; 10 °C, 20 μl/min. The note with it: scale: Mlh1–Pms1 complexes bound per Msh2–Msh6 complex.

Data set [4] relates to Msh2(K694A);Msh6 (Saccharomyces cerevisiae;Saccharomyces cerevisiae). As to the kind of experiment: SPR. Conditions: ATP up to 2.5 mM, LacI; SPR on streptavidin surface; buffer, salt, pH and temperature not given in the material; with or without 0.1-2.5 mM ATP; LacI end block, released by 1 mM IPTG.
For data set [5], the system named is Msh2(K694R);Msh6 (Saccharomyces cerevisiae;Saccharomyces cerevisiae). As to the kind of experiment: SPR. Conditions: ATP up to 2.5 mM, LacI; SPR on streptavidin surface; buffer, salt, pH and temperature not given in the material; with or without 0.1-2.5 mM ATP; LacI end block, released by 1 mM IPTG.
The test system of data set [6] is Msh2(K694M);Msh6 (Saccharomyces cerevisiae;Saccharomyces cerevisiae). As to the kind of experiment: SPR. Conditions: ATP up to 2.5 mM, LacI; SPR on streptavidin surface; buffer, salt, pH and temperature not given in the material; with or without 0.1-2.5 mM ATP; LacI end block, released by 1 mM IPTG.
The test system of data set [7] is Msh2;Msh6(G1142D) (Saccharomyces cerevisiae;Saccharomyces cerevisiae). As to the kind of experiment: SPR. The note with it: 0.1 and 2.5 mM ATP, LacI; printed as no more than 0.86; SPR on streptavidin surface; buffer, salt, pH and temperature not given in the material; with or without 0.1-2.5 mM ATP; LacI end block, released by 1 mM IPTG.
Data set [8] deals with Msh2;Msh6;Mlh1;Pms1 (Saccharomyces cerevisiae;Saccharomyces cerevisiae;Saccharomyces cerevisiae;Saccharomyces cerevisiae). Put plainly: SPR. Conditions: ATP, LacI; SPR on streptavidin surface; buffer, salt, pH and temperature not given in the material; with or without 0.1-2.5 mM ATP; LacI end block, released by 1 mM IPTG.

Turning to “S. cerevisiae Msh2–Msh6 (WT) mutant Msh6:K988R [S. cerevisiae] / S. cerevisiae Mlh1–Pms1 [S. cerevisiae] chain 4 K988R”, in data set [1], the screen value was 2.4.

In turn, “S. cerevisiae Msh2–Msh6 (WT) mutant Msh6:K988M [S. cerevisiae] / S. cerevisiae Mlh1–Pms1 [S. cerevisiae] chain 4 K988M” came in with a screen value in data set [1] of 3.4.

The substance “S. cerevisiae Msh2–Msh6 (WT) mutant Msh2:K694R [S. cerevisiae] / S. cerevisiae Mlh1–Pms1 [S. cerevisiae] chain 3 K694R” gave a screen value in data set [1] of 4.3.

236-bp +T mispair DNA: in data set [2], the binding signal (% of WT RUmax) amounted to 100.

“S. cerevisiae Mlh1–Pms1 (from UniProt P38920 1-769; P14242 1-873) (complex)”: the stoichiometry N in data set [3] is 2.06 to 3.75.

Take “S. cerevisiae Msh2–Msh6 (WT) mutant Msh6:K988A [S. cerevisiae] / S. cerevisiae Mlh1–Pms1 [S. cerevisiae] chain 4 K988A”: the screen value in data set [1] came to 3.3.

As to “S. cerevisiae Msh2–Msh6 (WT) mutant Msh2:K694A [S. cerevisiae] / S. cerevisiae Mlh1–Pms1 [S. cerevisiae] chain 3 K694A”, in data set [1], the screen value is 3.5.

Regarding “236-bp mispaired DNA, double end-blocked”, the binding signal (Msh2-Msh6 per DNA (maximum)) in data set [4], in data set [5] and in data set [6] was 1 throughout. Moreover, the binding signal (Msh2-Msh6 per DNA) in data set [7] was under 0.86. The binding signal (Mlh1-Pms1 per Msh2-Msh6) in data set [8] stood at 1.07.

“S. cerevisiae Msh2–Msh6 (WT) mutant Msh2:K694M [S. cerevisiae] / S. cerevisiae Mlh1–Pms1 [S. cerevisiae] chain 3 K694M” had a screen value in data set [1] of 4.9.

For orientation: stoichiometry N means the number of molecules, sites or subunits per partner or assembly.
